We go through six molecules from patent US20250026850A1 (TRISHULA THERAPEUTICS, published 2025).

Test [1] deals with T1, cynomolgus macaque (Macaca fascicularis) CD39 on cells (cynomolgus macaque (Macaca fascicularis), UniProt P49961 7-510 (human entry)).
T1 construct: CHO cells engineered to express cyno CD39, or primary cyno B cells and monocytes; also called cyno CD39; cCD39
T1 chain: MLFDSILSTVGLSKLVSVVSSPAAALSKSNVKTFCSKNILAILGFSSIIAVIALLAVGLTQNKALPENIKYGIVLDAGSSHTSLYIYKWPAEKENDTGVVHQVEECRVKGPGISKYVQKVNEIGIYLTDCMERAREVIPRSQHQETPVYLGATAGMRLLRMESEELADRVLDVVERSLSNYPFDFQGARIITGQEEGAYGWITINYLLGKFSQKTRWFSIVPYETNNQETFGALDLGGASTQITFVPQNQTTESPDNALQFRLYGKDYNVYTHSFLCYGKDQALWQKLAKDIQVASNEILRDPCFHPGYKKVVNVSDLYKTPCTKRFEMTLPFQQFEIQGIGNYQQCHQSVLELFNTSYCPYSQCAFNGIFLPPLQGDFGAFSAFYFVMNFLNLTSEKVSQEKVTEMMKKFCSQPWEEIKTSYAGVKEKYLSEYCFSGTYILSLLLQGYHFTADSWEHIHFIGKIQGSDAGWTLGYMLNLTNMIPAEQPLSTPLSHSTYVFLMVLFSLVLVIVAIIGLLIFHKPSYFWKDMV
In words: flow cytometry, 100 nM IgG, cCD39-CHO cells; MFI ratio to parental CHO.

Test [2] concerns the target T2, human CD39 on cells (human, UniProt P49961 1-510).
T2 construct: One molecule for all cells that carry human CD39; the cell is named under assay; also called hCD39; cellular CD39
T2 sequence: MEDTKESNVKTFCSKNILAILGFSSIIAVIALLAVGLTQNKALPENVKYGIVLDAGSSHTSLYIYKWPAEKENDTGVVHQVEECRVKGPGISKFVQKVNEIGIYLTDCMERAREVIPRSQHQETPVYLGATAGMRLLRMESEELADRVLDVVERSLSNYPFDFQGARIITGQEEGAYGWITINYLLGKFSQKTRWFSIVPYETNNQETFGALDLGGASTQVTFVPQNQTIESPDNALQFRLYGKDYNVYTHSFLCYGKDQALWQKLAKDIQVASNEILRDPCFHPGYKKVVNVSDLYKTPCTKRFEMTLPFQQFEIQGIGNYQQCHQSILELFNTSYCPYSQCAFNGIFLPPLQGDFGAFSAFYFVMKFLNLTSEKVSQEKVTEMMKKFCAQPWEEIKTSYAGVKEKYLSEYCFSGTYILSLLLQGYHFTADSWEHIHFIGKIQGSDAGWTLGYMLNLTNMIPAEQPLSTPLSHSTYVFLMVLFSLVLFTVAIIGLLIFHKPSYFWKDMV
In words: flow cytometry, 100 nM IgG, hCD39-CHO cells; MFI ratio to parental CHO. A general note: In flow cytometry, cells or beads pass a laser one at a time.

The target in test [3] is T3, rhCD39-ECD-His (R&D Systems) (human, UniProt P49961 38-478).
T3 construct: Bought protein; that entry runs on through the C-terminal transmembrane and cytoplasmic residues; also called recombinant human CD39 extracellular domain; soluble recombinant human CD39 (ENTDP1) ECD; not shown: His tag
T3 sequence: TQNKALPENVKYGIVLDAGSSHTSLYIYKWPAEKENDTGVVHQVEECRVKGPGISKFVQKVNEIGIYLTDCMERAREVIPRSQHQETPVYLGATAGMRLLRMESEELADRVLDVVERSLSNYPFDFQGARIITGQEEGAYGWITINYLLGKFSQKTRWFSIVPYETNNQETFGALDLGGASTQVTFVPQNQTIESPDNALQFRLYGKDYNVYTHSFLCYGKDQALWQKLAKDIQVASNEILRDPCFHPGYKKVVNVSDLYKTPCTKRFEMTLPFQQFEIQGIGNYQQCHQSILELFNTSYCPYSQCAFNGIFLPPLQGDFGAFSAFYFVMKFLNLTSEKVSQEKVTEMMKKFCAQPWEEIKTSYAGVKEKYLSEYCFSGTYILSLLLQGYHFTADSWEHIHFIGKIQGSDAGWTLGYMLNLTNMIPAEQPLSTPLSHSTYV
In words: BLI (Octet), IgG on anti-human Fc sensor, rhCD39-ECD-His 10-300 nM, 1:1 fit. Here is the method: The kinetic data was globally fit with a simple 1:1 Langmuir binding model to yield on-rate (kon) and off-rate (koff) values. The equilibrium dissociation constants (KD) were calculated from the kon and koff values.
Binding kinetics were measured using the Octet Red96 system (ForteBio) at 25° C. in running buffer (1× Pall ForteBio Kinetics Buffer diluted into PBS or Tris pH 7.4). […] After a short baseline step in running buffer, the sensors were exposed to varying concentrations (10-300 nM) of rhCD39-ECD-His (R&D Systems) for the association step. Dissociation of the complex was monitored upon exposure of the sensors to running buffer once again. Data was processed using ForteBio Octet software with baseline subtraction, global fit and 1:1 binding model to obtain association and dissociation rates. KD was calculated from the ratio of kd to kₐ.
(In BLI a coated tip is dipped into the sample, and binding shifts an interference pattern.)

The target in test [4] is T2, human CD39 on cells. Nature of the test: flow cytometry on 721 cells, anti-human IgG secondary, Prism fit; unit from the x axis. Here is the method:
(§1) Cells were washed 3 times in FACS buffer (PS, 2% FBS, and 2 mM EDTA) and next incubated with secondary antibody (goat anti-human IgG Southern Biotech) at 1:100 for 30 minutes at 4 degrees C. Cells were washed, resuspended in FACS buffer, and analyzed for binding by flow cytometry analysis on BD Celesta.

Test [5] has as its target T2, human CD39 on cells. Nature of the test: flow cytometry on MEL-28 cells, anti-human IgG secondary, Prism fit; unit from the x axis. Here is the method: as §1
The target of test [6] is T2, human CD39 on cells. In words: flow cytometry on purified human B cells, anti-human IgG-PE, Prism fit; unit from the x axis. The procedure:
(§2) EC50 was calculated using GrapPad Prism software. […] B cells were gated using FlowJo software and ECsos were calculated using GraphPad Prism.
(§3) B cells were isolated from human donor leukopak using EasySep B cell isolation kit ([…] Technologies). Cyno monocytes were purified from fresh cyno blood using NHP CD14 positive selection kit (Miltenyi) and flow through was collected and stained with CD4, CD8, CD20, CD16, and CD3 antibodies (BD). […] Cell were washed 3 times in FACS buffer (PS, 2% FBS, and 2 mM EDTA) and incubated with secondary antibody (mouse anti-human IgG southern biotech) at 1:100 for 30 minutes at 4 degrees C. Cells were washed 2 times in FACS buffer and resuspended in FACS buffer and analyzed on BD Celesta.

The target in test [7] is T1, cynomolgus macaque (Macaca …). In words: flow cytometry on cyno PBMC, gated B cells, anti-human IgG PE, Prism fit; unit from the x axis. The procedure: as §2, §3
Test [8] deals with T2, human CD39 on cells. Nature of the test: flow cytometry on purified human CD4+CD25+CD127dim Treg cells, anti-human IgG secondary, Prism fit; unit from the x axis. Here is the method:
Treg cells were isolated from human donor leukopak using CD4⁺CD25⁺CD127^dim regulatory T cell isolation kit II (Miltenyi). […] Cell were washed 3 times in FACS buffer (PS, 2% FBS, and 2 mM EDTA) and incubated with secondary antibody (mouse anti-human IgG southern biotech) at 1:100 for 30 minutes at 4 degrees C. Cells were washed 2 times in FACS buffer, resuspended in FACS buffer and analyzed on BD Fortessa.

B1: 31393 (antibody, V domains shown)
VH: QVQLVQSGAEVKKPGSSVKVSCKASGGTFESYGISWVRQAPGQGLEWMGSIIPEFGIANYAQKFQGRVTITADESTSTTYMELSSLRSEDTAVYYCARESGGYRDHRLDVWGQGTMVTVSS
VL: EIVMTQSPATLSVSPGERATLSCRASQSVGSNLAWYQQKPGQAPRLLIYGASTRATGIPARFSGSGSGTEFTLTISSLQSEDFAVYYCQQYLLWPLTFGGGTKVEIKR
As usually defined, the Kd is the free concentration of one partner at which half of the binding sites on the other are occupied at equilibrium, for simple one-to-one binding. Lower therefore signals higher affinity. By koff is commonly meant the rate constant with which the complex falls apart. Read a high koff as fast dissociation. A word on the kon: it is a measure of how fast the partners come together. A low value points to slower complex formation. Turning to B1, the “Cell Binding (FOB)” value in test [1] came to 2960 FOB. Besides, the “Cell Binding (FOB)” value in the test with human CD39 on cells [2] was 1060 FOB. In test [3], this molecule returned a Kd of 0.672 nM, a koff of 0.0002 s⁻¹ and a kon of 298000 M⁻¹ s⁻¹.

B2: 31861 (antibody, V domains shown)
VH: QVQLVQSGAEVKKPGSSVKVSCKASGGTFGSYGISWVRQAPGQGLEWMGSIIPEFGIANYAQKFQGRVTITADESTSTAYMELSSLRSEDTAVYYCARESGTYRDHRLDVWGQGTMVTVSS
VL: EIVMTQSPATLSVSPGERATLSCRASQSVGSNLAWYQQKPGQAPRLLIYGASTRATGIPARFSGSGSGTEFTLTISSLQSEDFAVYYCQQYLLWPLTFGGGTKVEIKR
Regarding B2, the “Cell Binding (FOB)” value in test [1] was 5480 FOB. Further, in the test with human CD39 on cells [2], the “Cell Binding (FOB)” value amounted to 1430 FOB. For the same molecule, in test [3], the Kd was 1.16 nM, the koff is 0.000286 s⁻¹ and the kon is 246000 M⁻¹ s⁻¹.

B3: 31873 (antibody, V domains shown)
VH: QVQLVQSGAEVKKPGSSVKVSCKASGGTFSKYGISWVRQAPGQGLEWMGSIIPEFGIANYAQKFQGRVTITADESTSTAYMELSSLRSEDTAVYYCARESGGYRDHRLGVWGQGTMVTVSS
VL: EIVMTQSPATLSVSPGERATLSCRASQSVGSNLAWYQQKPGQAPRLLIYGASTRASGIPARFSGSGSGTEFTLTISSLQSEDFAVYYCQQYLLWPLTFGGGTKVEIKR
Consider B3, for which, in test [1], the “Cell Binding (FOB)” value was determined as 5080 FOB. Besides, in the test with human CD39 on cells [2], the “Cell Binding (FOB)” value turned out to be 1320 FOB. In test [3], this molecule registered a Kd of 0.922 nM, a koff of 0.000286 s⁻¹ and a kon of 311000 M⁻¹ s⁻¹.

B4: 31901 (antibody, V domains shown)
VH: QVQLVQSGAEVKKPGSSVKVSCKASGGTFSSLPISWVRQAPGQGLEWMGGIGFGTANYAQKFQGRVTITADESTSTAYMELSSLRSEDTAVYYCARGGAKYAGRYGMDVWGQGTTVTVSS
VL: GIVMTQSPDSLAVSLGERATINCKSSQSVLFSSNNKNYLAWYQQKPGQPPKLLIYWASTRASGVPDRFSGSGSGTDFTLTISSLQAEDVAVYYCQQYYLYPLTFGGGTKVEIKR
Broadly, the EC50 is the concentration needed to bring the measured effect to its halfway point. Consider B4, for which the “Cell Binding (FOB)” value turned out to be 4660 FOB in test [1] and 1110 FOB with human CD39 on cells [2]. In test [3], this molecule came in with a Kd of 0.128 nM. This molecule came in with a koff in test [3] of 0.000132 s⁻¹. In test [3], this molecule had a kon of 1.03e+06 M⁻¹ s⁻¹. Besides, the EC50 is 0.851 µg/mL with human CD39 on cells [4]; 0.102 µg/mL in the test with human CD39 on cells [5]; 0.0438 µg/mL in the test with human CD39 on cells [6]; 0.124 µg/mL in test [7]; 0.519 nM in the test with human CD39 on cells [8].

B5: 31905 (antibody, V domains shown)
VH: QVQLVQSGAEVKKPGSSVKVSCKASGGTFPSNAISWVRQAPGQGLEWMGGIGFGTANYAQKFQGRVTITADESTSTAYMELSSLRSEDTAVYYCARGGAKYARTYGMDVWGQGTTVTVSS
VL: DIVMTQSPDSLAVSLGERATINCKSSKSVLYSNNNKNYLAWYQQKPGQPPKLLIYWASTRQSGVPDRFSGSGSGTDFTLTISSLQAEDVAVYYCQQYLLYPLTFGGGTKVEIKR
Regarding B5, the results for the “Cell Binding (FOB)” value (in test [1]; with human CD39 on cells [2]) were 4940 FOB and 1080 FOB, respectively. The molecule also gave a Kd in test [3] of 0.0731 nM. The koff in test [3] turned out to be 0.000111 s⁻¹. Besides, the kon in test [3] was found to be 1.52e+06 M⁻¹ s⁻¹. Also, the EC50 with human CD39 on cells [4] is 2.63 µg/mL; with human CD39 on cells [5], 0.159 µg/mL; with human CD39 on cells [6], 0.0805 µg/mL; in test [7], 0.124 µg/mL; with human CD39 on cells [8], 0.735 nM.

B6: 31437 (antibody, V domains shown)
VH: QVQLVQSGAEVKKPGASVKVSCKASGGTFQSLAISWVRQAPGQGLEWMGGILPIGGTANYAQKFQGRVTITADESTSTAYMELSSLRSEDTAVYYCARGGAKYAGRYGMDVWGQGTTVTVSS
VL: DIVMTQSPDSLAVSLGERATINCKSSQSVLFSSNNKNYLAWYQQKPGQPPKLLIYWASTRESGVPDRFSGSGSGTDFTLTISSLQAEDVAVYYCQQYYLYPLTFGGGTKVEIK
Regarding B6, the “Cell Binding (FOB)” value in test [1] came to 3640 FOB; in the test with human CD39 on cells [2], 1290 FOB. The molecule further showed a dissociation constant Kd in test [3] of 0.558 nM. The molecule further showed a koff in test [3] of 0.000213 s⁻¹. Moreover, the kon in test [3] is 382000 M⁻¹ s⁻¹. The EC50 with human CD39 on cells [4] was found to be 7.46 µg/mL; with human CD39 on cells [5], 0.368 µg/mL; with human CD39 on cells [6] it was 0.109 µg/mL; in test [7] it was 0.108 µg/mL.
